The star is where a group is joined. Biotin = O=C1N[C@H]2[C@H](CS[C@H]2CCCCC(=O)*)N1; Ttds = NCCCOCCOCCOCCCNC(=O)CCC(=O)*
Molecular target: recombinant GC (Cerezyme, Genzyme Therapeutics) (UniProt P04062)
Assay: cell-based or functional assay

Row | GC enzyme activity [times] | half-life of GC activity at 37° C. (stabilization assay) [h] | Binder
1 | 5 | 48 | {Biotin-Ttds}-LREIIEAMLKAYQQKLFVTHTVDE-OH [Helix 5 peptide (LIMP-2-derived, L152-E175)]
2 |  | 24 | {Biotin-Ttds}-LREDDEAMDKAYQQKLFVTHTVDE-OH [3xD Helix 5 peptide]
